Data on four molecules can be found in paper PMC10397247.

Assay [1] has as its target T1, O10-bS.
T1 chain: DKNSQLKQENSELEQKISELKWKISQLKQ
Kind of assay: two-hybrid library CCNG1.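 Note: natural log of median RNA to DNA barcode read ratio; higher means stronger binding.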

Assay [2] deals with T2, 4H717-bA.
T2 chain: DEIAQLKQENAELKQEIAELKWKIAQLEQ
Kind of assay: two-hybrid library CCNG1.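 Note: natural log of median RNA to DNA barcode read ratio; higher means stronger binding.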

Assay [3] concerns the target T3, 4H754-bA.
T3 chain: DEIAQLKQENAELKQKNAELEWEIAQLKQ
Kind of assay: two-hybrid library CCNG1.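 Note: natural log of median RNA to DNA barcode read ratio; higher means stronger binding.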

The target of assay [4] is T4, 4H953-bA.
T4 chain: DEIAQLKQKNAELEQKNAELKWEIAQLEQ
Kind of assay: two-hybrid library CCNG1.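 Note: natural log of median RNA to DNA barcode read ratio; higher means stronger binding.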

Assay [5] has as its target T5, 4H687-bA.
T5 chain: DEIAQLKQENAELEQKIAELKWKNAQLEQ
Kind of assay: two-hybrid library CCNG1.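 Note: natural log of median RNA to DNA barcode read ratio; higher means stronger binding.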

The target in assay [6] is T6, 4H908-bA.
T6 chain: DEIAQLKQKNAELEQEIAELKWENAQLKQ
Kind of assay: two-hybrid library CCNG1.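 Note: natural log of median RNA to DNA barcode read ratio; higher means stronger binding.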

In assay [7] the target is T7, 4H72-bA.
T7 chain: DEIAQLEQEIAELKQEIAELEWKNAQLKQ
Put plainly: two-hybrid library CCNG1.

Assay [8] has as its target T8, 4H883-bA.
T8 chain: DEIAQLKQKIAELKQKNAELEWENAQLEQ
Kind of assay: two-hybrid library CCNG1.

Assay [9] addresses T9, 4H568-bA.
T9 chain: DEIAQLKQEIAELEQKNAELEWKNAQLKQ
Kind of assay: two-hybrid library CCNG1.

Assay [10] has as its target T10, 4H797-bA.
T10 chain: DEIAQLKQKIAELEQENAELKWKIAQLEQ
Kind of assay: two-hybrid library CCNG1.

The target in assay [11] is T11, 4H850-bN.
T11 chain: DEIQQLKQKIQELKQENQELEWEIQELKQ
Put plainly: two-hybrid library CCNG1.

Assay [12] has as its target T12, 4H918-bA.
T12 chain: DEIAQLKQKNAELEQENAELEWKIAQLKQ
Kind of assay: two-hybrid library CCNG1.

For assay [13], the target named is T13, 4H607-bA.
T13 chain: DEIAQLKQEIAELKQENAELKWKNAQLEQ
Kind of assay: two-hybrid library CCNG1.

In assay [14] the target is T14, 4H967-bA.
T14 chain: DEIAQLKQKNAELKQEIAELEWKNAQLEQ
Put plainly: two-hybrid library CCNG1.

For assay [15], the target named is T15, P5A-bA.
T15 chain: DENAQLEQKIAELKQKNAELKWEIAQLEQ
Put plainly: two-hybrid library CCNG1.

Assay [16] deals with T16, APC8910-AA.
T16 chain: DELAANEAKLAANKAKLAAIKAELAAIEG
Kind of assay: two-hybrid library CCmax. The settings on record: mean of both orientations.

Assay [17] deals with T17, APC2405-AA.
T17 chain: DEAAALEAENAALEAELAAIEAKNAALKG
Kind of assay: two-hybrid library CCmax. The following applies: mean of both orientations.

The target in assay [18] is T18, 4H2458-AA.
T18 chain: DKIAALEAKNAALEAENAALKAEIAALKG
Kind of assay: two-hybrid library CCmax. The following applies: mean of both orientations.

Assay [19] concerns the target T19, APC3645-AA.
T19 chain: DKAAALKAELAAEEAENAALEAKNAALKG
Kind of assay: two-hybrid library CCmax. The following applies: mean of both orientations.

Assay [20] deals with T20, APC4011-AA.
T20 chain: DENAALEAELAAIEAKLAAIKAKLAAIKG
Put plainly: two-hybrid library CCmax. The settings on record: mean of both orientations.

The target of assay [21] is T21, APC4436-AA.
T21 chain: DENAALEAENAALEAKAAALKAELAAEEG
Kind of assay: two-hybrid library CCmax. The settings on record: mean of both orientations.

In assay [22] the target is T22, 4H3330-AA.
T22 chain: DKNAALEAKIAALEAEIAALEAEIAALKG
Kind of assay: two-hybrid library CCmax. The settings on record: mean of both orientations.

In assay [23] the target is T23, APC2237-AA.
T23 chain: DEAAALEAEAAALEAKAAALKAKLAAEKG
Put plainly: two-hybrid library CCmax. The settings on record: mean of both orientations.

Assay [24] addresses T24, 4H2148-AA.
T24 chain: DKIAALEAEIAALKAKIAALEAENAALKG
Kind of assay: two-hybrid library CCmax.

The target of assay [25] is T25, APC1015-AA.
T25 chain: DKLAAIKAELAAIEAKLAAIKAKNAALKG
Put plainly: two-hybrid library CCmax. The following applies: mean of both orientations.

For assay [26], the target named is T26, APC8191-AA.
T26 chain: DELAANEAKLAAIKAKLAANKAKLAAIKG
Put plainly: two-hybrid library CCmax. The settings on record: mean of both orientations.

Assay [27] deals with T27, 4H716-AA.
T27 chain: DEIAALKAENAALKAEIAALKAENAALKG
Put plainly: two-hybrid library CCmax. The settings on record: mean of both orientations.

The target in assay [28] is T28, 4H807-AA.
T28 chain: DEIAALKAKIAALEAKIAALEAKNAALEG
Put plainly: two-hybrid library CCmax. The settings on record: mean of both orientations.

The target of assay [29] is T29, APC4264-AA.
T29 chain: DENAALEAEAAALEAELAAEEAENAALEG
Put plainly: two-hybrid library CCmax. The following applies: mean of both orientations.

Assay [30] deals with T30, 4H2290-AA.
T30 chain: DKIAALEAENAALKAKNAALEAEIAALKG
Kind of assay: two-hybrid library CCmax. The following applies: mean of both orientations.

For assay [31], the target named is T31, 4H2447-AA.
T31 chain: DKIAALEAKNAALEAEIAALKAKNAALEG
Put plainly: two-hybrid library CCmax. The settings on record: mean of both orientations.

Assay [32] has as its target T32, APC9096-AA.
T32 chain: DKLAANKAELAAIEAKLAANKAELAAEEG
Kind of assay: two-hybrid library CCmax. The settings on record: mean of both orientations.

For assay [33], the target named is T33, APC232-AA.
T33 chain: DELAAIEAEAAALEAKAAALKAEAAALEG
Put plainly: two-hybrid library CCmax. The settings on record: mean of both orientations.

Assay [34] addresses T34, 4H733-AA.
T34 chain: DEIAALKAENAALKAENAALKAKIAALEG
Put plainly: two-hybrid library CCmax. The following applies: mean of both orientations.

Assay [35] addresses T35, APC9319-AA.
T35 chain: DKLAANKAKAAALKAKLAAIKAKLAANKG
Kind of assay: two-hybrid library CCmax. The following applies: mean of both orientations.

Assay [36] concerns the target T36, APC7099-AA.
T36 chain: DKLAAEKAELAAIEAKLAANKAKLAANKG
Kind of assay: two-hybrid library CCmax. The settings on record: mean of both orientations.

Assay [37] deals with T37, APC1434-AA.
T37 chain: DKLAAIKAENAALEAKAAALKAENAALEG
Kind of assay: two-hybrid library CCmax. The settings on record: mean of both orientations.

The target of assay [38] is T38, APC6108-AA.
T38 chain: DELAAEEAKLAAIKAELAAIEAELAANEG
Put plainly: two-hybrid library CCmax. The following applies: mean of both orientations.

Assay [39] deals with T39, APC5383-AA.
T39 chain: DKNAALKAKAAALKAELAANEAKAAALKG
Kind of assay: two-hybrid library CCmax. The following applies: mean of both orientations.

The target of assay [40] is T40, P7mSN.
T40 chain: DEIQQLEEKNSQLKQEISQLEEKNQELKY
Put plainly: two-hybrid library CCNG1.

Assay [41] deals with T41, P12mSN.
T41 chain: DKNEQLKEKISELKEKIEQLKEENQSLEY
Put plainly: two-hybrid library CCNG1.

Assay [42] concerns the target T42, P9mSN.
T42 chain: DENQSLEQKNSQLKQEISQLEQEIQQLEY
Kind of assay: two-hybrid library CCNG1.

Assay [43] deals with T43, P1mSN.
T43 chain: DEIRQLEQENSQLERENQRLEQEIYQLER
Put plainly: two-hybrid library CCNG1.

The target of assay [44] is T44, P3mSN.
T44 chain: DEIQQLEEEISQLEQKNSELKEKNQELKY
Kind of assay: two-hybrid library CCNG1.

Assay [45] addresses T45, P8mSN.
T45 chain: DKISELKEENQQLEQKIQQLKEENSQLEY
Put plainly: two-hybrid library CCNG1.

Assay [46] addresses T46, P5mSN.
T46 chain: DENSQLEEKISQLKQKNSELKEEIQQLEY
Kind of assay: two-hybrid library CCNG1.

Assay [47] has as its target T47, P6mSN.
T47 chain: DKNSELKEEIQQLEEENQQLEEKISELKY
Kind of assay: two-hybrid library CCNG1.

Assay [48] addresses T48, P2mSN.
T48 chain: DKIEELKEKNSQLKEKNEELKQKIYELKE
Kind of assay: two-hybrid library CCNG1.

Assay [49] has as its target T49, P4mSN.
T49 chain: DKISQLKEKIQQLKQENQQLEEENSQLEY
Kind of assay: two-hybrid library CCNG1.

Assay [50] has as its target T50, 4H2937-bH.
T50 chain: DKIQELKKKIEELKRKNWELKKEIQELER
Put plainly: two-hybrid library CCNG1.

The target of assay [51] is T51, 4H342-bH.
T51 chain: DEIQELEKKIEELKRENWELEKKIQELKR
Put plainly: two-hybrid library CCNG1.

The target of assay [52] is T52, 4H48-bH.
T52 chain: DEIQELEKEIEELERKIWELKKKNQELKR
Kind of assay: two-hybrid library CCNG1.

Assay [53] deals with T53, 4H2883-bH.
T53 chain: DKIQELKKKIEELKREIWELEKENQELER
Kind of assay: two-hybrid library CCNG1.

The target in assay [54] is T54, 4H2944-bH.
T54 chain: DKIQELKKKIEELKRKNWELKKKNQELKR
Put plainly: two-hybrid library CCNG1.

Assay [55] addresses T55, 4H491-bH.
T55 chain: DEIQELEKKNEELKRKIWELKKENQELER
Kind of assay: two-hybrid library CCNG1.

B1: 4H568-bA (peptide)
chain: DEIAQLKQEIAELEQKNAELEWKNAQLKQ
Take B1: the interaction score in assay [1] is -1.27; in [2], -0.468; in assay [3], -0.527; in assay [4], -1.16; in [5], -0.587; in assay [6] it was -1.26. The interaction score was -0.657 in assay [7]; 1.54 in assay [8]; 1.33 in assay [9]; -0.352 in assay [10]; 0.0841 in assay [11]; -0.305 in assay [12]. Further, the interaction score was -1.48 in assay [13], -0.986 in assay [14] and -1.54 in assay [15].

B2: 4H2148-AA (peptide)
chain: DKIAALEAEIAALKAKIAALEAENAALKG
Turning to B2, the interaction score was -1.35 in assay [16]; -1.19 in assay [17]; -1.46 in assay [18]; -1.31 in assay [19]; -0.327 in assay [20]; -1.32 in assay [21]. Also, the interaction score is -0.193 in [22]; -1.14 in assay [23]; 1.63 in assay [24]; 0.959 in [25]; -1.4 in [26]; -1.22 in [27]. In addition, the interaction score in [28] is -1.41; in assay [29], -1.81; in [30] it was -1.47; in assay [31], -1.42; in assay [32], -1.24; in assay [33], -1.38. The interaction score is -1.59 in assay [34]; -1.42 in [35]; -1.55 in [36]; -1.39 in assay [37]; -1.13 in [38]; -1.66 in assay [39].

B3: P12mSN (peptide)
chain: DKNEQLKEKISELKEKIEQLKEENQSLEY
For B3, the interaction score was -0.807 in assay [40]; -0.695 in [41]; -2.15 in [42]; -1.32 in [43]; -1.72 in assay [44]; -2.51 in assay [45]. Moreover, the interaction score in assay [46] was -1.2; in assay [47], -1.04; in assay [48] it was -1.65; in [49], -1.35.

B4: 4H2883-bH (peptide)
chain: DKIQELKKKIEELKREIWELEKENQELER
As for B4, the interaction score in assay [50] is 0.674; in assay [51], -0.175; in [52] it was 1.17; in [53], 1.73; in assay [54], 0.783; in assay [55] it was 0.298.
